Measured values as given in the supplement of paper PMC9170038.

System: K4 kissing-loop RNA reporter
Assay: apparent KD of K4 kissing-loop reporter; higher = weaker reporter binding
Conditions: Eterna round: R107; input ligand: none
Procedure: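 RNA-MaP round R107: designed RNA switches with theophylline, tryptophan, arginine or FMN aptamers are transcribed on-chip within common flanks. They are titrated with a labelled K4 kissing-loop RNA reporter in RNA-MaP buffer (100 mM Tris pH 7.5, 80 mM KCl, 4 mM MgCl2), without ligand or with the indicated ligand. Median apparent KD per design.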
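Note: bound reporter read as fluorescence of individual clusters on recovered sequencing chips by microscopy, with normalized cluster intensities fitted with a binding model.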

Sequence | apparent KD of K4 kissing-loop reporter [nM]
GCGCGUCAUGUCAGCGGUGACUCUGUCGAUACCAGCGCCGCAAGGCGCCCUUGGCAGCGACGCGCUGGAGUGAUGUUCCAGCGUG [#2 Exclusion - Theophylline A Attempt #13 (HarryS)] | 160
UGAUAGGACAGAAGGAGCGGUAGUGAUGUUACCAAAAGGUUAAGGUGUCAAAAGACACCCUACCAGGUAGGUCGCUGUCCUAUCU | 161
ACCUAGUAGACAGGAUAUCACGAUGACAGUGAUGUUGUCAUCAUCGAUUUGAGGAAACUCAGAUCGUGAGAAGGGUCUAACGACU [FMN B SS t7a] | 204
AAACUCAGUGAUGUUGAGUGGGAGCGGGAUACCAGAUCGCCCAUCAUCCCUUGGCAGCCCGAGCGUCAGAAUACAUUUCAUUUGC [theeternabot_sameState_KL_Theo_A_6] | 349
AUAGGAUUGCGAGGAUAUCCUUCCCACGUCGAAGUACCGUGCUUGAUGGAGUGAUGUUCGAUCAGAGGAGAAGGUGCGGUUUUGU [Same State FMN B GF24] | 942
UAGCGCAACCUGCUUACGUAUGAGCCGGAAGGAGCGGCAGAAUUGCCAGGUAGGUCGCCGGCCCAGUGAUGUUGGGAUGGUGUGG [Usritiis] | 252
CGCUUGCACGGAAGGAGCGUCCAAGCGAGACACGAGUGAUGUUCGUGAUCGACGUAAACUGGACAGGUAGGUCGCCGUGCUUAAU [Eresti] | 121
CGCUUGGGUGCGGCCGCCACUAGAGCGUGACACGGGUCCCAAAAGGGUGCAGUGAUGUUGCAGCCUAGGACCGGGCACCUCUGGC [Beveesbe] | 90.4
GCUAUGGUAGGAAGGAGCGCUUGCUCGGUCAUAUGAGUGAUGUUCGAGACCGAGCAUUUAUAGCAGGUAGGUCGCCUACUAUAGC [Arginine B K4 8] | 192
UUUUAUUCGUACUUCUAGUGAUGUUAGAUUCGAGGACCGGUACGGCCGCCACUCGUUAAGGCGAUUUUAUAUUUUUUAUUCUUUA [JR_SSTryptoA_Sub012] | 179
UACUUAUAGUUAUUUCUAAAUUUAUUUAGUCAGGAUAUCGAAUAGUCGAGAAGGGACAUAAUCAAGUGAUGUUUGAUUAUUCAAA [JR_SSFMNA_Sub023] | 84.8
UAUUAAUUGUCAGGAUAUCGAAAUCGAGUGAUGUUCGUAAAUUAAUUAUUAUUAAUAAUAUUUAAACGAGAAGGGACAUUAUUUA [JR_SSFMNB_Sub001] | 694
UAACUCUUGCAGUGAUGUUGCAAGUAAGCUCAGGAUAUCAGGAAACUGAGAAGGGAGCAUCCUGAGCAACUGCAAGAGCUCAGAA [[K1]-[K2]-[F1]-[F2]-[F]'-[K]'-[F]''_Design1] | 95.9
GGCACGGUAACGCAACCGCCGUGCGCUUGGGAGGAUAUGUUUCGUGACAGAAGGCCCAGUGAUGUUGGGUCUGUUCAAAAGGACU [Ceenerus] | 105
UGAUAGGACAGAAGGAGCGGGAGUGAUGUUCCCAAAAGGGUAAGGUGUCAAAAGACACCCUUCCAGGUAGGUCGCUGUCCUAUCU | 97.5
GCCGUAGAUUGAAGGAGCGGUAUGGGCGUUGGCUGAGUGAUGUUCAGGGAAAGUGGCUUCUACCAGGUAGGUCGCAAUCUACGGC | 157
UGUAUGUGAUUUGAUACCAGACCAGCUGGUGGUUCACGAGUGAUGUUCGUGUUGGUUUGGGUCCCUUGGCAGCAAAUCGCAUACU [KL-SSTheoB12] | 144
ACGUGCACCAGUGAUGUUGGAAAAUAUGAAGGAGCGGGUGAAAGCCCAGGUAGGUCGCAUAAUAGCACGAGCCACGAAAGUGGCA | 184
CGCAGUGAUGUUGUGAUUAACUACAGGGAAGGAGCGUGCUAGAGCACAGGUAGGUCGCCCAGUGGCCGAGUGAUGUUCGGCGGGU [Same State Arginine A GF 27] | 227
UUUGUAGAGGGAAGGAGCGUGAAAGAGAAAGAAUAUAGUGAUGUUAUAUAGAAGAAAGAAUCACAGGUAGGUCGCCCGGAGGAGG [SSArgB.E] | 458
ACACGUGUGGCAGGAUAUCGGGCUGUGGAUCGGCUGGUUGCUUAUUCUCGACCAGUGAUGUUGGUACGAGAAGGGCUACCCAGAA [Diorce] | 114
AGGAGCGUGCGAUGCAAAUCGCACGCUCCUCGAGGACCGGUACGGCCGCCACUCGCUCGCGCCGAGUGAUGUUCGGCCGGCGAAC [#2 Same State - Tryptophan A Attempt #10 (HarryS)] | 265

Same assay, conditions: Eterna round: R107; input ligand: theophylline 20 uM

Sequence | apparent KD of K4 kissing-loop reporter [nM]
UGUCAUUGGUCGGCCGCCACUUCAUGUAGAGUGAUGUUUUGUAGGACGGAUCGAAAGAUCUGUCGGAGGACCGGGACCGAUGACU [FiskerMod 16 - Jieux - Same State - Tryptophan B] | 266
ACGUCCGGAUUAAUCGUGGGCAUGGUCGAUACCAGAUCUUUAAUGAUCCCUUGGCAGCGACAUGAGUGAUGUUCAUGUGCGAUGA [KL-XTheo-A8 #analogue] | 244
GGAUGCAUAGUAGAUACCAGCAAGCUCGGAUAGUGAUGUUGUUCGCAGUCAUUUCGGUAGUGCCCUUGGCAGCUAGACGCCCGAU [theeternabot_exclusion_KL_Theo_B_36] | 92.3
GAGGCCAGACUGAGUGAUGUUUAGUAUGAUACCAGUAUCGAAGGAUACCCUUGGCAGCAUGCCACGGCCUCGGCGGGAAACCGCC | 714
GAGUCCUUUGAAGGAUAUAGACGUCCCGAUCACUCAGUUGGCGAGCGAGUGAUGUUCGUUCCUAUACUAGAAGGUCAAAGCCUCC [theeternabot_sameState_KL_FMN_B_32] | 204
AGACUACCACACUGUCAAUAGACAGUGGACUAGGAUAUGCUGAUAAGCAGAAGGAGUGAUGUUCCUCGGUAGUCAAUAAAAUAAU [FmnAX 13 G28+C67] | 489
CUCGAGUGAUGUUCGAUUAUUUAUACAGAUACCAGUGAAUUUUAACACCCUUGGCAGCUGGUAGUAUCGUUGUAAUUUACACAAG [JR_ExcTheophyA_Sub004] | 168
GGGAAGGACGGAGGAUAUGCACUGAGGAGGAGAAUAUAGUGAUGUUAUAUAAGAGGAAGGAGCUGAGUAGAAGGCCGAGGAAAGG [whbob_SS_FMNB__2th207] | 92.4
AGUGAUAUAUGAGGAUAUGGGAUUGUUAAUGAGUUAGUUUUAGUGUUGUUUGGUUAGUGAUGUUAUUUAGAAGGCGUGAGUGAUG [kuktrmullin] | 116
UGUAAUUCGGCGGCCGCCACUGACCAUAGCCUUCGAUGGCCAGUGAUGUUGGCCUCUGGCUCUAACAGGACCGGGCCGAAUUGCG [Sotetiqu] | 157
AAAGUUGAUGAGUUGGGUAUGUGUUCCGAAGGAGCGAGAAUUAUCUCAGGUAGGUCGCGGAAGAUGAGUGAUGUUCAUCUAUAAA [KL-XArg-A8 #analogue] | 144
GUAUGUGGAAACACGUACUUAUAUCCUAGGCAGGAUAUGCGGAAACGCAGAAGGGCCACCGGCGAGUUUAUCCAGUGAUGUUGGA [Ex FMN A 8] | 271
AUUAAUUUCAGAGGAUAUCGUUAUUUUUUUAAGUAUAAUCUAUUAUGCAGUGAUGUUGCUAUUAAUCGAGAAGGCUGAUUUAUAA [JR_ExcFMNB_Sub001] | 134
AACCUACGAUCACAAUAGUGAUUGUAGGACUAGGAUAUGCUGAAAAGCAGAAGGAGUGAUGUUCCACUCAUGAAUAACAUGAGAA [FmnAX 4 #OpenEnded #K4Late #CoaxialStacking] | 324
UGAUAGGACAGAAGGAGCGGUAGUGAUGUUACCAAAAGGAUAAGGUGUCAAAAGACACCCUACCAGGUAGGUCGCUGUCCUAUCU | 85.1
GCGCGUCAUGUCAGCGGUGACUAUGUCGAUACCAGCAGGGAAACCUGCCCUUGGCAGCGACGCGCUGGAGUGAUGUUCCGACGGC [#2 Exclusion - Theophylline A Attempt #8 (HarryS)] | 173
AGAGAUAUAUGAGGAUAUGAGUUAGUUAAUGAGUUAGUUUUAGUGUUGUUUGGUUAGUGAUGUUAUUUAGAAGGCGUGAGUGAUG [cxfsmullin] | 96.9

Sequence | apparent KD of K4 kissing-loop reporter [nM]
AAAUCUUUCAGAAGGAGCGUGGAUUAUUCUUAUAUAUUUAUUACGAGUGAUGUUCGUAAUUCACAGGUAGGUCGCUGAUCAAUAA [JR_ExcArginiB_Sub006] | 109
UGUCAUUGGUCUGAUACCAGCUUGAUCGGAAACGAUCUGCUGGAGUGAUGUUCCAAGUAAAGCCCUUGGCAGCAGACCGAUGACU [TheoBS 8 #SwitchBubble #StaticStem] | 125
GUAGAUAGGCUACAUCUCUAGUCUAAAGACUAGGAUAUCAGGAAACUGAGAAGGAGUCUCAUUGGAGUGAUGUUCCAAGAAUAAU [KL-SSFMN-A16] | 109
CGUUUAUAGCAGGAUACCAGUACCCAUAAAGUACGUUAAUAGUAGAGUGAUGUUCUAAAGUACCCUUGGCAGCUUAGAGUGAGUG [ExTheophylB.Q] | 137
GCCGCCGCGGCAGGAUAUAGACAUUGAGUGAUGUUCGGUGCUUAUCCAAAGUGCUGUUUCGGCCAACUAGAAGGGCCGCGGCGGC | 103
GCGCGUCAUGUCAGCGGUGACUCUGUCGAUACCAGCGCCGCAAGGCGCCCUUGGCAGCGACGCGCUGGAGUGAUGUUCCAGCGUG [#2 Exclusion - Theophylline A Attempt #13 (HarryS)] | 150
UGAUAGGACAGAAGGAGCGGUAGUGAUGUUACCAAAAGGUUAAGGUGUCAAAAGACACCCUACCAGGUAGGUCGCUGUCCUAUCU | 126
ACCUAGUAGACAGGAUAUCACGAUGACAGUGAUGUUGUCAUCAUCGAUUUGAGGAAACUCAGAUCGUGAGAAGGGUCUAACGACU [FMN B SS t7a] | 168
AAACUCAGUGAUGUUGAGUGGGAGCGGGAUACCAGAUCGCCCAUCAUCCCUUGGCAGCCCGAGCGUCAGAAUACAUUUCAUUUGC [theeternabot_sameState_KL_Theo_A_6] | 385
AUAGGAUUGCGAGGAUAUCCUUCCCACGUCGAAGUACCGUGCUUGAUGGAGUGAUGUUCGAUCAGAGGAGAAGGUGCGGUUUUGU [Same State FMN B GF24] | 732
UAGCGCAACCUGCUUACGUAUGAGCCGGAAGGAGCGGCAGAAUUGCCAGGUAGGUCGCCGGCCCAGUGAUGUUGGGAUGGUGUGG [Usritiis] | 223
CGCUUGCACGGAAGGAGCGUCCAAGCGAGACACGAGUGAUGUUCGUGAUCGACGUAAACUGGACAGGUAGGUCGCCGUGCUUAAU [Eresti] | 101
CGCUUGGGUGCGGCCGCCACUAGAGCGUGACACGGGUCCCAAAAGGGUGCAGUGAUGUUGCAGCCUAGGACCGGGCACCUCUGGC [Beveesbe] | 70.1
GCUAUGGUAGGAAGGAGCGCUUGCUCGGUCAUAUGAGUGAUGUUCGAGACCGAGCAUUUAUAGCAGGUAGGUCGCCUACUAUAGC [Arginine B K4 8] | 200
UUUUAUUCGUACUUCUAGUGAUGUUAGAUUCGAGGACCGGUACGGCCGCCACUCGUUAAGGCGAUUUUAUAUUUUUUAUUCUUUA [JR_SSTryptoA_Sub012] | 165
UACUUAUAGUUAUUUCUAAAUUUAUUUAGUCAGGAUAUCGAAUAGUCGAGAAGGGACAUAAUCAAGUGAUGUUUGAUUAUUCAAA [JR_SSFMNA_Sub023] | 88.8
